Measured values from the supplement of paper PMC5998384.

Legend:
HeLa Kyoto [1] = experiment: solubility in G1/S (NP-40 vs SDS abundance) (log2 ratio); higher = more soluble; conditions: cell cycle stage: G1/S
HeLa Kyoto [2] = experiment: melting temperature (median over replicates), in situ; higher = more thermally stable
HeLa Kyoto [3] = experiment: solubility change mitosis vs G1/S (difference of NP-40 vs SDS log2 ratios) (log2 ratio difference); higher = more soluble in mitosis
HeLa Kyoto [4] = experiment: thermal stability score vs G1/S (z-score of summed log2 fold changes over temperatures); higher = more thermally stable than in G1/S
[5] = cell cycle stage: early G1 (4.5 h after nocodazole release)
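Wherever melting temperature (median over replicates), in situ is given: HeLa Kyoto cells synchronized by double thymidine or nocodazole block, proteins quantified by TMT10plex mass spectrometry, three independent biological replicates.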
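Wherever solubility change mitosis vs G1/S (difference of NP-40 vs SDS log2 ratios) is given: synchronized HeLa Kyoto cells (double thymidine block for G1/S, nocodazole release for mitosis), protein amounts in NP-40 versus SDS lysates quantified by mass spectrometry, three biological replicates.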
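Wherever solubility in G1/S (NP-40 vs SDS abundance) is given: HeLa Kyoto cells arrested at G1/S by double thymidine block, proteins quantified by TMT10plex mass spectrometry in mild NP-40 versus SDS extracts, three biological replicates.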
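Wherever thermal stability score vs G1/S (z-score of summed log2 fold changes over temperatures) is given: synchronized HeLa Kyoto cells, proteins quantified by TMT10plex mass spectrometry, three biological replicates, mitosis taken 0.5 h after nocodazole release, G1/S directly after double thymidine block.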

Substance | solubility in G1/S (log2) (HeLa Kyoto [1]) | melting temperature (HeLa Kyoto [2]; cell cycle stage: G1/S) | melting temperature (HeLa Kyoto [2]; cell cycle stage: mitosis) | solubility change mitosis (log2) (HeLa Kyoto [3]) | thermal stability score (HeLa Kyoto [4]; [5]) | thermal stability score (HeLa Kyoto [4]; cell cycle stage: mitosis)
MAASQTSQTVASHVPFADLCSTLERIQKSKGRAEKIRHFREFLDSWRKFHDALHKNHKDVTDSFYPAMRLILPQLERERMAYGIKETMLAKLYIELLNLPRDGKDALKLLNYRTPTGTHGDAGDFAMIAYFVLKPRCLQKGSLTIQQVNDLLDSIASNNSAKRKDLIKKSLLQLITQSSALEQKWLIRMIIKDLKLGVSQQTIFSVFHNDAAELHNVTTDLEKVCRQLHDPSVGLSDISITLFSAFKPMLAAIADIEHIEKDMKHQSFYIETKLDGERMQMHKDGDVYKYFSRNGYNYTDQFGASPTEGSLTPFIHNAFKADIQICILDGEMMAYNPNTQTFMQKGTKFDIKRMVEDSDLQTCYCVFDVLMVNNKKLGHETLRKRYEILSSIFTPIPGRIEIVQKTQAHTKNEVIDALNEAIDKREEGIMVKQPLSIYKPDKRGEGWLKIKPEYVSGLMDELDILIVGGYWGKGSRGGMMSHFLCAVAEKPPPGEKPSVFHTLSRVGSGCTMKELYDLGLKLAKYWKPFHRKAPPSSILCGTEKPEVYIEPCNSVIVQIKAAEIVPSDMYKTGCTLRFPRIEKIRDDKEWHECMTLDDLEQLRGKASGKLASKHLYIGGDDEPQEKKRKAAPKMKKVIGIIEHLKAPNLTNVNKISNIFEDVEFCVMSGTDSQPKPDLENRIAEFGGYIVQNPGPDTYCVIAGSENIRVKNIILSNKHDVVKPAWLLECFKTKSFVPWQPRFMIHMCPSTKEHFAREYDCYGDSYFIDTDLNQLKEVFSGIKNSNEQTPEEMASLIADLEYRYSWDCSPLSMFRRHTVYLDSYAVINDLSTKNEGTRLAIKALELRFHGAKVVSCLAEGVSHVIIGEDHSRVADFKAFRRTFKRKFKILKESWVTDSIDKCELQEENQYLI [LIG4] | -0.0399 | 48.4 °C | 49.6 °C | -0.329 | 0.0186 | 0.758
MERAVQGTDGGGGSNSSSRSSSRATSAGSSPSCSLAGRGVSSRSAAAGLGGGGSRSSPGSVAASPSGGGGRRREPALEGVLSKYTNLLQGWQNRYFVLDFEAGILQYFVNEQSKHQKPRGVLSLSGAIVSLSDEAPHMLVVYSANGEMFKLRAADAKEKQFWVTQLRACAKYHMEMNSKSAPSSRSRSLTLLPHGTPNSASPCSQRHLSVGAPGVVTITHHKSPAAARRAKSQYSGQLHEVREMMNQVEGQQKNLVHAIESLPGSGPLTALDQDLLLLKATSAATLSCLGECLNLLQQSVHQAGQPSQKPGASENILGWHGSKSHSTEQLKNGTLGSLPSASANITWAILPNSAEDEQTSQPEPEPNSGSELVLSEDEKSDNEDKEETELGVMEDQRSIILHLISQLKLGMDLTKVVLPTFILEKRSLLEMYADFMAHPDLLLAITAGATPEERVICFVEYYLTAFHEGRKGALAKKPYNPIIGETFHCSWEVPKDRVKPKRTASRSPASCHEHPMADDPSKSYKLRFVAEQVSHHPPISCFYCECEEKRLCVNTHVWTKSKFMGMSVGVSMIGEGVLRLLEHGEEYVFTLPSAYARSILTIPWVELGGKVSINCAKTGYSATVIFHTKPFYGGKVHRVTAEVKHNPTNTIVCKAHGEWNGTLEFTYNNGETKVIDTTTLPVYPKKIRPLEKQGPMESRNLWREVTRYLRLGDIDAATEQKRHLEEKQRVEERKRENLRTPWKPKYFIQEGDGWVYFNPLWKAH [OSBPL10] | 0.0171 | 48.6 °C | 51 °C | 0.13 | -0.0143 | -0.526
MQDTGSVVPLHWFGFGYAALVASGGIIGYVKAGSVPSLAAGLLFGSLAGLGAYQLSQDPRNVWVFLATSGTLAGIMGMRFYHSGKFMPAGLIAGASLLMVAKVGVSMFNRPH [TMEM14C] | 0.356 | – | 54.3 °C | 0.206 | -3.8e-18 | -4.49e-20
MVVTRSARAKASIQAASAESSGQKSFAANGIQAHPESSTGSDARTTAESQTTGKQSLIPRTPKARKRKSRTTGSLPKGTEPSTDGETSEAESNYSVSEHHDTILRVTRRRQILIACSPVSSVRKKPKVTPTKESYTEEIVSEAESHVSGISRIVLPTEKTTGARRSKAKSLTDPSQESHTEAISDAETSSSDISFSGIATRRTRSMQRKLKAQTEKKDSKIVPGNEKQIVGTPVNSEDSDTRQTSHLQARSLSEINKPNFYNNDFDDDFSHRSSENILTVHEQANVESLKETKQNCKDLDEDANGITDEGKEINEKSSQLKNLSELQDTSLQQLVSQRHSTPQNKNAVSVHSNLNSEAVMKSLTQTFATVEVGRWNNNKKSPIKASDLTKFGDCGGSDDEEESTVISVSEDMNSEGNVDFECDTKLYTSAPNTSQGKDNSVLLVLSSDESQQSENSENEEDTLCFVENSGQRESLSGDTGSLSCDNALFVIDTTPGMSADKNFYLEEEDKASEVAIEEEKEEEEDEKSEEDSSDHDENEDEFSDEEDFLNSTKAKLLKLTSSSIDPGLSIKQLGGLYINFNADKLQSNKRTLTQIKEKKKNELLQKAVITPDFEKNHCVPPYSESKYQLQKKRRKERQKTAGDGWFGMKAPEMTNELKNDLKALKMRASMDPKRFYKKNDRDGFPKYFQIGTIVDNPADFYHSRIPKKQRKRTIVEELLADSEFRRYNRRKYSEIMAEKAANAAGKKFRKKKKFRN [DNTTIP2] | -2.06 | 48.9 °C | 52.4 °C | 1.04 | 2.7 | 4.77
MLTRVKSAVANFMGGIMAGSSGSEHGGGSCGGSDLPLRFPYGRPEFLGLSQDEVECSADHIARPILILKETRRLPWATGYAEVINAGKSTHNEDQASCEVLTVKKKAGAVTSTPNRNSSKRRSSLPNGEGLQLKENSESEGVSCHYWSLFDGHAGSGAAVVASRLLQHHITEQLQDIVDILKNSAVLPPTCLGEEPENTPANSRTLTRAASLRGGVGAPGSPSTPPTRFFTEKKIPHECLVIGALESAFKEMDLQIERERSSYNISGGCTALIVICLLGKLYVANAGDSRAIIIRNGEIIPMSSEFTPETERQRLQYLAFMQPHLLGNEFTHLEFPRRVQRKELGKKMLYRDFNMTGWAYKTIEDEDLKFPLIYGEGKKARVMATIGVTRGLGDHDLKVHDSNIYIKPFLSSAPEVRIYDLSKYDHGSDDVLILATDGLWDVLSNEEVAEAITQFLPNCDPDDPHRYTLAAQDLVMRARGVLKDRGWRISNDRLGSGDDISVYVIPLIHGNKLS [PPM1H] | 0.29 | 55.9 °C | 56.9 °C | 0.221 | -2.63 | -1.3
MAASKPVEAAVVAAAVPSSGSGVGGGGTAGPGTGGLPRWQLALAVGAPLLLGAGAIYLWSRQQRRREARGRGDASGLKRNSERKTPEGRASPAPGSGHPEGPGAHLDMNSLDRAQAAKNKGNKYFKAGKYEQAIQCYTEAISLCPTEKNVDLSTFYQNRAAAFEQLQKWKEVAQDCTKAVELNPKYVKALFRRAKAHEKLDNKKECLEDVTAVCILEGFQNQQSMLLADKVLKLLGKEKAKEKYKNREPLMPSPQFIKSYFSSFTDDIISQPMLKGEKSDEDKDKEGEALEVKENSGYLKAKQYMEEENYDKIISECSKEIDAEGKYMAEALLLRATFYLLIGNANAAKPDLDKVISLKEANVKLRANALIKRGSMYMQQQQPLLSTQDFNMAADIDPQNADVYHHRGQLKILLDQVEEAVADFDECIRLRPESALAQAQKCFALYRQAYTGNNSSQIQAAMKGFEEVIKKFPRCAEGYALYAQALTDQQQFGKADEMYDKCIDLEPDNATTYVHKGLLQLQWKQDLDRGLELISKAIEIDNKCDFAYETMGTIEVQRGNMEKAIDMFNKAINLAKSEMEMAHLYSLCDAAHAQTEVAKKYGLKPPTL [TOMM70A] | 0.504 | 50.4 °C | 50.1 °C | 0.0273 | 2.06 | 2.92
MKFRAKIVDGACLNHFTRISNMIAKLAKTCTLRISPDKLNFILCDKLANGGVSMWCELEQENFFNEFQMEGVSAENNEIYLELTSENLSRALKTAQNARALKIKLTNKHFPCLTVSVELLSMSSSSRIVTHDIPIKVIPRKLWKDLQEPVVPDPDVSIYLPVLKTMKSVVEKMKNISNHLVIEANLDGELNLKIETELVCVTTHFKDLGNPPLASESTHEDRNVEHMAEVHIDIRKLLQFLAGQQVNPTKALCNIVNNKMVHFDLLHEDVSLQYFIPALS [HUS1] | 0.0659 | 51.8 °C | 51.9 °C | -0.083 | 1.48 | 1.19
RNF213 | -0.346 | 49.9 °C | 49.8 °C | -0.11 | 0.57 | 1.78
